Assay results as given in US20200173960A1.

How the values were obtained:
[1] = target: trastuzumab; assay: cell-based or functional assay
[2] = target: trastuzumab; assay: method not stated; affinity listed for the purchased ADA
[3] = target: trastuzumab; assay: ELISA Kit A (anti-idiotype capture) of trastuzumab 50 ug/mL pre-bound with ADA; trastuzumab:ADA 1:1
[4] = target: trastuzumab; assay: ELISA Kit A (anti-idiotype capture) of trastuzumab 50 ug/mL pre-bound with ADA; trastuzumab:ADA 5:1
[5] = target: trastuzumab; assay: ELISA Kit A (anti-idiotype capture) of trastuzumab 0.5 ug/mL pre-bound with ADA; trastuzumab:ADA 1:1
[6] = target: trastuzumab; assay: ELISA Kit A (anti-idiotype capture) of trastuzumab 0.5 ug/mL pre-bound with ADA; trastuzumab:ADA 1:2
[7] = target: trastuzumab; assay: ELISA Kit A (anti-idiotype capture) of trastuzumab 0.5 ug/mL pre-bound with ADA; trastuzumab:ADA 1:5
[8] = target: trastuzumab; assay: ELISA Kit A (anti-idiotype capture) of trastuzumab 0.5 ug/mL pre-bound with ADA; trastuzumab:ADA 5:1
[9] = target: trastuzumab; assay: ELISA Kit A (anti-idiotype capture) of trastuzumab 50 ug/mL pre-bound with ADA; trastuzumab:ADA 10:1
[10] = target: trastuzumab; assay: ELISA Kit A (anti-idiotype capture) of trastuzumab 0.5 ug/mL pre-bound with ADA; trastuzumab:ADA 10:1
[11] = target: trastuzumab; assay: ELISA Kit A (anti-idiotype capture) of trastuzumab 0.5 ug/mL pre-bound with ADA; trastuzumab:ADA 1:10
[12] = target: trastuzumab; assay: ELISA Kit A (anti-idiotype capture) of trastuzumab 0.5 ug/mL pre-bound with ADA; trastuzumab:ADA 1:50
[13] = target: trastuzumab; assay: ELISA Kit A (anti-idiotype capture) of trastuzumab 50 ug/mL pre-bound with ADA; trastuzumab:ADA 100:1
[14] = target: trastuzumab; assay: ELISA Kit A (anti-idiotype capture) of trastuzumab 0.5 ug/mL pre-bound with ADA; trastuzumab:ADA 1:100
[15] = target: trastuzumab; assay: ELISA Kit B (HER2 capture, anti-human IgG Fc detection) of trastuzumab 0.5 ug/mL pre-bound with ADA; trastuzumab:ADA 1:1
[16] = target: trastuzumab; assay: ELISA Kit B (HER2 capture, anti-human IgG Fc detection) of trastuzumab 0.5 ug/mL pre-bound with ADA; trastuzumab:ADA 10:1
[17] = target: trastuzumab; assay: ELISA Kit B (HER2 capture, anti-human IgG Fc detection) of trastuzumab 0.5 ug/mL pre-bound with ADA; trastuzumab:ADA 1:10
[18] = target: bevacizumab; assay: cell-based or functional assay
[19] = target: bevacizumab; assay: Bevacizumab PK ELISA (anti-idiotype capture) of bevacizumab 50 ug/mL pre-bound with ADA; bevacizumab:ADA 1:1
[20] = target: bevacizumab; assay: Bevacizumab PK ELISA (anti-idiotype capture) of bevacizumab 50 ug/mL pre-bound with ADA; bevacizumab:ADA 5:1
[21] = target: bevacizumab; assay: Bevacizumab PK ELISA (anti-idiotype capture) of bevacizumab 0.5 ug/mL pre-bound with ADA; bevacizumab:ADA 1:1
[22] = target: bevacizumab; assay: Bevacizumab PK ELISA (anti-idiotype capture) of bevacizumab 0.5 ug/mL pre-bound with ADA; bevacizumab:ADA 1:2
[23] = target: bevacizumab; assay: Bevacizumab PK ELISA (anti-idiotype capture) of bevacizumab 0.5 ug/mL pre-bound with ADA; bevacizumab:ADA 1:5
[24] = target: bevacizumab; assay: Bevacizumab PK ELISA (anti-idiotype capture) of bevacizumab 0.5 ug/mL pre-bound with ADA; bevacizumab:ADA 5:1
[25] = target: bevacizumab; assay: Bevacizumab PK ELISA (anti-idiotype capture) of bevacizumab 50 ug/mL pre-bound with ADA; bevacizumab:ADA 10:1
[26] = target: bevacizumab; assay: Bevacizumab PK ELISA (anti-idiotype capture) of bevacizumab 0.5 ug/mL pre-bound with ADA; bevacizumab:ADA 10:1
[27] = target: bevacizumab; assay: Bevacizumab PK ELISA (anti-idiotype capture) of bevacizumab 0.5 ug/mL pre-bound with ADA; bevacizumab:ADA 1:10
[28] = target: bevacizumab; assay: Bevacizumab PK ELISA (anti-idiotype capture) of bevacizumab 0.5 ug/mL pre-bound with ADA; bevacizumab:ADA 1:50
[29] = target: bevacizumab; assay: Bevacizumab PK ELISA (anti-idiotype capture) of bevacizumab 50 ug/mL pre-bound with ADA; bevacizumab:ADA 100:1
[30] = target: bevacizumab; assay: Bevacizumab PK ELISA (anti-idiotype capture) of bevacizumab 0.5 ug/mL pre-bound with ADA; bevacizumab:ADA 1:100
[31] = target: trastuzumab; assay: ELISA Kit B (HER2 capture, anti-human IgG Fc detection) of trastuzumab 0.5 ug/mL pre-bound with ADA; trastuzumab:ADA 1:100

HCA177 (antibody)
Accuracy (%) nSMOL; trastuzumab 0.5 ug/mL; trastuzumab:ADA 1:1 [1]: 96.1% | Accuracy (%) nSMOL; trastuzumab 0.5 ug/mL; trastuzumab:ADA 1:2 [1]: 84.4% | Accuracy (%) nSMOL; trastuzumab 0.5 ug/mL; trastuzumab:ADA 1:5 [1]: 78.7% | Accuracy (%) nSMOL; trastuzumab 0.5 ug/mL; trastuzumab:ADA 1:10 [1]: 81% | Accuracy (%) nSMOL; trastuzumab 0.5 ug/mL; trastuzumab:ADA 1:50 [1]: 89.5% | Accuracy (%) nSMOL; trastuzumab 0.5 ug/mL; trastuzumab:ADA 1:100 [1]: 74.1% | Accuracy (%) nSMOL; trastuzumab 0.5 ug/mL; trastuzumab:ADA 5:1 [1]: 98.7% | Accuracy (%) nSMOL; trastuzumab 0.5 ug/mL; trastuzumab:ADA 10:1 [1]: 98.4% | Accuracy (%) nSMOL; trastuzumab 50 ug/mL; trastuzumab:ADA 1:1 [1]: 88% | Accuracy (%) nSMOL; trastuzumab 50 ug/mL; trastuzumab:ADA 5:1 [1]: 99.4% | Accuracy (%) nSMOL; trastuzumab 50 ug/mL; trastuzumab:ADA 10:1 [1]: 103% | Accuracy (%) nSMOL; trastuzumab 50 ug/mL; trastuzumab:ADA 100:1 [1]: 96.2% | Accuracy (%) nSMOL; trastuzumab first immobilized on Protein A; trastuzumab:ADA 1:1 [1]: 89.2% | Accuracy (%) nSMOL; trastuzumab first immobilized on Protein A; trastuzumab:ADA 5:1 [1]: 97.3% | Accuracy (%) nSMOL; trastuzumab first immobilized on Protein A; trastuzumab:ADA 10:1 [1]: 103% | Accuracy (%) nSMOL; trastuzumab first immobilized on Protein A; trastuzumab:ADA 100:1 [1]: 94.7% | inhibitory effect on quantification values (nSMOL), ratio 1:1 [1]: 10% | Kd [2]: 0.02 nM | Accuracy (%) ELISA [3]: 84.5% | Accuracy (%) ELISA [4]: 92% | Accuracy (%) ELISA [5]: 110% | Accuracy (%) ELISA [6]: 99.9% | Accuracy (%) ELISA [7]: 99.4% | Accuracy (%) ELISA [8]: 112% | Accuracy (%) ELISA [9]: 85.3% | Accuracy (%) ELISA [10]: 103% | Accuracy (%) ELISA [11]: 108% | Accuracy (%) ELISA [12]: 112% | Accuracy (%) ELISA [13]: 98% | Accuracy (%) ELISA [14]: 106% | Accuracy (%) Kit B [15]: 46% | Accuracy (%) Kit B [16]: 97.4% | Accuracy (%) Kit B [17]: 0.962%

MAB11128 (clone2C8) (antibody)
Accuracy (%) nSMOL; bevacizumab 0.5 ug/mL; bevacizumab:ADA 1:1 [18]: 98.2% | Accuracy (%) nSMOL; bevacizumab 0.5 ug/mL; bevacizumab:ADA 1:2 [18]: 110% | Accuracy (%) nSMOL; bevacizumab 0.5 ug/mL; bevacizumab:ADA 1:5 [18]: 111% | Accuracy (%) nSMOL; bevacizumab 0.5 ug/mL; bevacizumab:ADA 1:10 [18]: 110% | Accuracy (%) nSMOL; bevacizumab 0.5 ug/mL; bevacizumab:ADA 1:50 [18]: 110% | Accuracy (%) nSMOL; bevacizumab 0.5 ug/mL; bevacizumab:ADA 1:100 [18]: 104% | Accuracy (%) nSMOL; bevacizumab 0.5 ug/mL; bevacizumab:ADA 5:1 [18]: 98% | Accuracy (%) nSMOL; bevacizumab 0.5 ug/mL; bevacizumab:ADA 10:1 [18]: 91.3% | Accuracy (%) nSMOL; bevacizumab 50 ug/mL; bevacizumab:ADA 1:1 [18]: 102% | Accuracy (%) nSMOL; bevacizumab 50 ug/mL; bevacizumab:ADA 5:1 [18]: 97.3% | Accuracy (%) nSMOL; bevacizumab 50 ug/mL; bevacizumab:ADA 10:1 [18]: 100% | Accuracy (%) nSMOL; bevacizumab 50 ug/mL; bevacizumab:ADA 100:1 [18]: 101% | Accuracy (%) nSMOL; bevacizumab first immobilized on Protein A; bevacizumab:ADA 1:1 [18]: 106% | Accuracy (%) nSMOL; bevacizumab first immobilized on Protein A; bevacizumab:ADA 5:1 [18]: 106% | Accuracy (%) nSMOL; bevacizumab first immobilized on Protein A; bevacizumab:ADA 10:1 [18]: 104% | Accuracy (%) nSMOL; bevacizumab first immobilized on Protein A; bevacizumab:ADA 100:1 [18]: 109% | Accuracy (%) ELISA [19]: 5.72% | Accuracy (%) ELISA [20]: 65.5% | Accuracy (%) ELISA [21]: 6.9% | Accuracy (%) ELISA [22]: 3.2% | Accuracy (%) ELISA [23]: 2.3% | Accuracy (%) ELISA [24]: 14.2% | Accuracy (%) ELISA [25]: 68.5% | Accuracy (%) ELISA [26]: 44.2% | Accuracy (%) ELISA [27]: 2.4% | Accuracy (%) ELISA [28]: 0.1% | Accuracy (%) ELISA [29]: 102% | Accuracy (%) ELISA [30]: 0%

MAB11130 (antibody)
Accuracy (%) nSMOL; trastuzumab 0.5 ug/mL; trastuzumab:ADA 1:1 [1]: 102% | Accuracy (%) nSMOL; trastuzumab 0.5 ug/mL; trastuzumab:ADA 1:2 [1]: 97.8% | Accuracy (%) nSMOL; trastuzumab 0.5 ug/mL; trastuzumab:ADA 1:5 [1]: 108% | Accuracy (%) nSMOL; trastuzumab 0.5 ug/mL; trastuzumab:ADA 1:10 [1]: 109% | Accuracy (%) nSMOL; trastuzumab 0.5 ug/mL; trastuzumab:ADA 1:50 [1]: 115% | Accuracy (%) nSMOL; trastuzumab 0.5 ug/mL; trastuzumab:ADA 1:100 [1]: 100% | Accuracy (%) nSMOL; trastuzumab 0.5 ug/mL; trastuzumab:ADA 5:1 [1]: 103% | Accuracy (%) nSMOL; trastuzumab 0.5 ug/mL; trastuzumab:ADA 10:1 [1]: 105% | Accuracy (%) nSMOL; trastuzumab 50 ug/mL; trastuzumab:ADA 1:1 [1]: 102% | Accuracy (%) nSMOL; trastuzumab 50 ug/mL; trastuzumab:ADA 5:1 [1]: 105% | Accuracy (%) nSMOL; trastuzumab 50 ug/mL; trastuzumab:ADA 10:1 [1]: 110% | Accuracy (%) nSMOL; trastuzumab 50 ug/mL; trastuzumab:ADA 100:1 [1]: 102% | Accuracy (%) nSMOL; trastuzumab first immobilized on Protein A; trastuzumab:ADA 1:1 [1]: 96.2% | Accuracy (%) nSMOL; trastuzumab first immobilized on Protein A; trastuzumab:ADA 5:1 [1]: 108% | Accuracy (%) nSMOL; trastuzumab first immobilized on Protein A; trastuzumab:ADA 10:1 [1]: 105% | Accuracy (%) nSMOL; trastuzumab first immobilized on Protein A; trastuzumab:ADA 100:1 [1]: 109% | Accuracy (%) ELISA [3]: 2.75% | Accuracy (%) ELISA [4]: 72.8% | Accuracy (%) ELISA [5]: 0.632% | Accuracy (%) ELISA [8]: 96.9% | Accuracy (%) ELISA [9]: 74.2% | Accuracy (%) ELISA [10]: 102% | Accuracy (%) ELISA [13]: 83.5% | Accuracy (%) Kit B [15]: 3.69% | Accuracy (%) Kit B [16]: 88.9% | Accuracy (%) Kit B [17]: 1.36% | Accuracy (%) Kit B [31]: 4.49%
